From the supplement of paper PMC10567573
± gives the standard deviation.

Experiment: protein stability index of a GFP-peptide fusion (GPS, HEK-293T) (PSI 1-6); higher = more stable
Conditions: c terminus: a fixed tail appended
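Also: 24-mer peptide tiles fused after GFP, lentivirally expressed, FACS-sorted into six equal bins by GFP/DsRed ratio, decoded by Illumina sequencing, PSI is the read-weighted mean bin number.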

Sequence	protein stability index (treatment: DMSO)	protein stability index (treatment: MLN4924 1 uM, 8 h)
RAYLFNSVVNVGCGPAEERVLLTG [YPEL3]	2.72 ± 0.56	2.87 ± 0.71
ETVLALVNCISPLKYFSDFRPYFT [DENND6A]	2.54 ± 0.48	3.21 ± 0.83
ISPGKNATGMEVGWYRPPFSRVVH [MOG]	2.45 ± 0.17	2.69 ± 0.23
LGAVAVFAVGYIKISWSTWGEMTL [SLC19A2]	2.97 ± 0.68	2.97 ± 0.73
QKLQEITRCKSSEEKKPGELKRLV [TRIM39]	4.16 ± 0.37	4.21 ± 0.17
LKLQTKTIKVSYARPSSASIRDAN [ELAVL3]	2.77 ± 0.37	2.91 ± 0.32
RPGHLPGLLLGSHGLLGSPVRAAA [CDC25B]	3.31 ± 0.53	3.09 ± 0.42
SCCFDPDSQRVASVSLDRCIKIWD [WDR88]	2.44 ± 0.14	2.57 ± 0.36
AAPFRFVARPVRFPREHQFFEDGD [ZNF511]	2.85 ± 0.56	3.28 ± 0.62
SAENSVAKKEDKVPVKKQKTRTVF [NANOGP8]	4.21 ± 0.33	4.29 ± 0.34
FMYSGVENKQVVIIHHMRLQAKAL [INTS4]	2.48 ± 0.33	2.52 ± 0.63
DFFIVGCEVIFCVFIFYYVVEEIL [PKD2L1]	1.92 ± 0.47	2 ± 0.3
IIQYRLPMKKNNNLYSWDDFMELG [ACSBG2]	2.12 ± 0.32	1.98 ± 0.25
GGGSSRISSVLAGGSCRAPSTYGG [KRT16]	3.04 ± 0.59	3.46 ± 0.18
PLTLQSQPKEPQLTCDSAQKCHSI [ZSCAN9]	4.36 ± 0.29	4.39 ± 0.15
PPATLGEGSADTEDRKLPAPGADV [EHMT1]	5.47 ± 0.3	5.58 ± 0.13
TASLIEDIDKKHLVLLRDGRTLIG [LSM1]	2.83 ± 0.15	2.62 ± 0.32
YWGSPEEQSLLSRWNPWSTEVPYA [TPRG1]	2.09 ± 0.14	2.23 ± 0.28
MSGSCAVCVDRVLYLFGGHHSRGN [KLHDC2]	2.35 ± 0.55	1.75 ± 0.36
